Results reported in patent US20200030425.
Where two headings read alike, the source gives them in different places.

Columns and labels:
[1] = target: hCD16a-F158 (human) (UniProt P08637)
[2] = target: hCD32a-H131 (human) (UniProt P12318)
[3] = target: hCD32a-H131 (human) (UniProt P12318); remark: listed apart in the source
[4] = target: hCD16a-F158 (human) (UniProt P08637); remark: listed apart in the source

Chain of hCD16a-F158 (human) (P08637 17-208): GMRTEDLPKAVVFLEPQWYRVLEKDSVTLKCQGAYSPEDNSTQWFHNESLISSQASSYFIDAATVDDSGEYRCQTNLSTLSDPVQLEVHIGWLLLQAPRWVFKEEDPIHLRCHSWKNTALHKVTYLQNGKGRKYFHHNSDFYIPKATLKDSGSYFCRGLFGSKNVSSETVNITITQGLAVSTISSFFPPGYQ
Chain of hCD32a-H131 (human) (P12318 34-217): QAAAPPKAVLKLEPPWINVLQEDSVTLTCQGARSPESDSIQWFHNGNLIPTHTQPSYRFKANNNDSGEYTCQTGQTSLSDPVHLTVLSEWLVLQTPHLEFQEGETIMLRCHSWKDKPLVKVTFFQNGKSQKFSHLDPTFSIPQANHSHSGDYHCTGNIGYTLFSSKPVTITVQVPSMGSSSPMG

IgG1f
Kd [1]: 200 µM
Kd [2]: 530 µM

IgG1f-S267E
Kd [3]: 650 µM
Kd [4]: > 5000 µM
